The data set in a line: self-splicing fitness, log relative to wild type (ln ratio); higher = more splicing; Tetrahymena group I intron in knt gene, E. coli kanamycin selection, DiMSum; sequences stand for … in CUCUCU…GGAGGGAAAAGUUAUCAGGCAUGCACCUGGUAGCUAGUCUUUAAACCAAUAGAUUGCAUCGGUUUAAAAGGCAAGACCGUCAAAUUGCGGGAAAGGGGUCAACAGCCGUUCAGUACCAAGUCUCAGGGGAAACUUUGAGAUGGCCUUGCAAAGGGUAUGGUAAUAAGCUGACGGACAUGGUCCUAACCACGCAGCCAAGUCCUAAGUCAACAGAUCUUCUGUUGAUAUGGAUGCAGUUCACAGACUAAAUGUCGGUCGGGGAAGAUGUAUUCUUCUCAUAAGAUAUAGUCGGACCUCUCCUUAAUGGGAGCUAGCGGAUGAAGUGAUGCAACACUGGAGCCGCUGGGAACUAAUUUGUAUGCGAAAGUAUAUUGAUUAGUUUUGGAGUACUCGUGGUCG
In short, it runs like this: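 Library with all eight P1ex-region intron nucleotides randomised, intron inside the knt kanamycin-resistance gene on pET-22b(+), in E. coli BL21(DE3). Cells grew overnight at 37°C or 30°C on LB agar with or without 25 μg/mL kanamycin (plus 100 μg/mL carbenicillin, 50 μM IPTG, 0.2% rhamnose), in six replicate transformations. Pooled colonies were amplicon-sequenced on Illumina HiSeq 2500. DiMSum fitness is the error-weighted combination of wild-type-normalised replicate fold changes, kanamycin versus none.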

± gives the uncertainty stated by the source.

UAGUAGCAAUAUUACGGGUU: the “self-splicing fitness (ln)” value reads like this: (30 °C) -3.97 ± 0.27; (37 °C) -2.66 ± 0.2.

Regarding GGCCAGCAAUAUUACGCAUA, the “self-splicing fitness (ln)” value is -1.52 ± 0.095 (30 °C) and -0.945 ± 0.12 (37 °C).

For CGUUAGCAAUAUUACGUACG, the “self-splicing fitness (ln)” value reads like this: (30 °C) -2.89 ± 0.36; (37 °C) -2.09 ± 0.5.

Consider UCGCAGCAAUAUUACGUCCC, for which the “self-splicing fitness (ln)” value (30 °C) is -4.28 ± 0.32 and the “self-splicing fitness (ln)” value (37 °C) was -2.97 ± 0.3.

Turning to GUGCAGCAAUAUUACGCAGA, the “self-splicing fitness (ln)” value is -2.57 ± 0.46 (30 °C) and -1.53 ± 0.23 (37 °C).

Consider ACAUAGCAAUAUUACGUCCG, for which the “self-splicing fitness (ln)” value (30 °C) is -1.62 ± 0.11 and the “self-splicing fitness (ln)” value (37 °C) is -1.2 ± 0.14.

Regarding AUCGAGCAAUAUUACGAUCC, the “self-splicing fitness (ln)” value (30 °C) is -2.13 ± 0.46.

Regarding UCUCAGCAAUAUUACGCGUU, the “self-splicing fitness (ln)” value runs as follows: (30 °C) -2.55 ± 0.14; (37 °C) -1.55 ± 0.17.

On to GAAGAGCAAUAUUACGGAUA, for which the “self-splicing fitness (ln)” value by setting is: (30 °C) -2.15 ± 0.22; (37 °C) -2.85 ± 0.43.

As to UAGCAGCAAUAUUACGGUAG, the “self-splicing fitness (ln)” value was -1.07 ± 0.051 (30 °C) and -0.873 ± 0.067 (37 °C).

For AGCUAGCAAUAUUACGUACG, the “self-splicing fitness (ln)” value was -1.85 ± 0.07 (30 °C) and -1.21 ± 0.081 (37 °C).

As for CUACAGCAAUAUUACGUACC, the “self-splicing fitness (ln)” value by setting is: (30 °C) -3.08 ± 0.41; (37 °C) -1.72 ± 0.43.

As to CACGAGCAAUAUUACGGGUU, the “self-splicing fitness (ln)” value reads like this: (30 °C) -3.2 ± 0.16; (37 °C) -2.81 ± 0.22.

In the case of CAGAAGCAAUAUUACGAAUG, the “self-splicing fitness (ln)” value is -2.6 ± 0.14 (30 °C) and -0.683 ± 0.13 (37 °C).

Consider AGGAAGCAAUAUUACGGCGA, for which the “self-splicing fitness (ln)” value is, setting by setting: (30 °C) -0.209 ± 0.097; (37 °C) -0.301 ± 0.13.

For GAUAAGCAAUAUUACGGGAC, the “self-splicing fitness (ln)” value was -2.82 ± 0.13 (30 °C) and -1.18 ± 0.1 (37 °C).

For the sequence AUCGAGCAAUAUUACGACCU, the “self-splicing fitness (ln)” value is -0.95 ± 0.092 (30 °C) and -0.344 ± 0.15 (37 °C).

In the case of GCCAAGCAAUAUUACGUAGU, the “self-splicing fitness (ln)” value was -0.579 ± 0.051 (30 °C) and -0.395 ± 0.06 (37 °C).

As to CAGAAGCAAUAUUACGGCAC, the “self-splicing fitness (ln)” value was -3.44 ± 0.41 (30 °C) and -1.87 ± 0.32 (37 °C).

UAAGAGCAAUAUUACGCCUG: the “self-splicing fitness (ln)” value (30 °C) is -2.17 ± 0.15 and the “self-splicing fitness (ln)” value (37 °C) is -0.85 ± 0.2.

In the case of GCGUAGCAAUAUUACGCGAA, under “37 °C”, the “self-splicing fitness (ln)” value is -1.31 ± 0.39.

GGUAAGCAAUAUUACGCGGU: the “self-splicing fitness (ln)” value (30 °C) is -3.85 ± 0.31 and the “self-splicing fitness (ln)” value (37 °C) was -0.403 ± 0.15.

Take UAAAAGCAAUAUUACGUAUA: the “self-splicing fitness (ln)” value was -1.82 ± 0.12 (30 °C) and -0.643 ± 0.12 (37 °C).

In the case of UAAAAGCAAUAUUACGGUCC, the “self-splicing fitness (ln)” value is -2.84 ± 0.17 (30 °C) and -2.03 ± 0.21 (37 °C).

For GUCUAGCAAUAUUACGGGAG, the “self-splicing fitness (ln)” value by setting is: (30 °C) -1.87 ± 0.17; (37 °C) -0.423 ± 0.11.

Regarding GCAAAGCAAUAUUACGGGUU, the “self-splicing fitness (ln)” value is, setting by setting: (30 °C) -2.11 ± 0.12; (37 °C) -1.67 ± 0.16.

CUUUAGCAAUAUUACGCACA: for the setting “37 °C”, the “self-splicing fitness (ln)” value is -1.19 ± 0.35.

On to ACGUAGCAAUAUUACGAGCA, for which the “self-splicing fitness (ln)” value was -0.664 ± 0.2 (30 °C) and -1.82 ± 0.19 (37 °C).

GUGCAGCAAUAUUACGGGCU: the “self-splicing fitness (ln)” value runs as follows: (30 °C) -1.95 ± 0.15; (37 °C) -1.2 ± 0.12.

Turning to GCGAAGCAAUAUUACGCUCG, the “self-splicing fitness (ln)” value was -2.95 ± 0.29 (30 °C) and -2.12 ± 0.27 (37 °C).

GGGAAGCAAUAUUACGUUGU: the “self-splicing fitness (ln)” value runs as follows: (30 °C) -3.23 ± 0.22; (37 °C) -2.31 ± 0.29.

Take GAUGAGCAAUAUUACGACAA: the “self-splicing fitness (ln)” value (30 °C) was -2.95 ± 0.31.

With AAGAAGCAAUAUUACGGUUA, the “self-splicing fitness (ln)” value is -0.783 ± 0.15 (30 °C) and -0.983 ± 0.12 (37 °C).

As to AUCGAGCAAUAUUACGCAUA, for the setting “37 °C”, the “self-splicing fitness (ln)” value was -1.54 ± 0.36.

Turning to ACUUAGCAAUAUUACGAAGA, the “self-splicing fitness (ln)” value reads like this: (30 °C) -1.69 ± 0.12; (37 °C) -1.24 ± 0.14.

With GGGGAGCAAUAUUACGUCUA, the “self-splicing fitness (ln)” value (37 °C) was -2.6 ± 0.37.

On to GGCAAGCAAUAUUACGUGUU, for which the “self-splicing fitness (ln)” value (30 °C) is -1.96 ± 0.059 and the “self-splicing fitness (ln)” value (37 °C) was -1.83 ± 0.076.

Take UCAUAGCAAUAUUACGUUAA: for the setting “37 °C”, the “self-splicing fitness (ln)” value was -3.44 ± 0.42.

For AUUCAGCAAUAUUACGCUAG, the “self-splicing fitness (ln)” value reads like this: (30 °C) -1.56 ± 0.13; (37 °C) -0.152 ± 0.14.

GAUCAGCAAUAUUACGUCUU: the “self-splicing fitness (ln)” value worked out at 0.24 ± 0.076 (30 °C) and 0.0656 ± 0.085 (37 °C).

The values are drawn from the supplement of paper PMC7877785.
